Results: the supplement of paper PMC12667976
± gives the standard error.

B1: library; numbered along this chain (parent)
chain: MATDAALRRLLRLHRTEIAVAVDSAFPLLHALADHDVVPEDKFQETLHLKEKEGCPQAFHALLSWLLTQDSTAILDFWRVLFKDYNLERYGRLQPILDSFPKDVDLSQPRKGRKPPAVPKALVPPPRLPTKRKASEEARAAAPAALTPRGTASPGSQLKAKPPKKPESSAEQQRLPLGNGIQTMSASVQRAVAMSSGDVPGARGAVEGILIQQVFESGGSKKCIQVGGEFYTPSKFEDSGSGKNKARSSSGPKPLVRAKGAQGAAPGGGEARLGQQGSVPAPLALPSDPQLHQKNEDECAVCRDGGELICCDGCPRAFHLACLSPPLREIPSGTWRCSSCLQATVQEVQPRAEEPRPQEPPVETPLPPGLRSAGEEVRGPPGEPLAGMDTTLVYKHLPAPPSAAPLPGLDSSALHPLLCVGPEGQQNLAPGARCGVCGDGTDVLRCTHCAAAFHWRCHFPAGTSRPGTGLRCRSCSGDVTPAPVEGVLAPSPARLAPGPAKDDTASHEPALHRDDLESLLSEHTFDGILQWAIQSMARPAAPFPS

Variants of: B1
Assay: AIRE transcriptional activation functional score (insulin promoter-GFP; nonsense median 0, synonymous median 1) (normalised score); higher = higher AIRE activity (more reporter activation)
Settings: with insulin promoter-GFP reporter in HEK293
Method in brief: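 The functional score compares variant enrichment between select and non-select populations after subtracting wild type. To obtain it, codon-optimized AIRE NNN-codon libraries spanning three regions were placed by Bxb1 recombinase into Flp-In T-REx HEK293 landing-pad cells with an insulin core promoter-GFP reporter. Cells with the top 10% GFP and unselected integrants were tile-sequenced after mCherry+, BFP− integrants had been sorted at day 7 and grown 7 more days. Only variants with 10 counts per million in non-select were kept, rescaled to nonsense median 0 and synonymous median 1, and averaged across biological replicates.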

AIRE transcriptional activation functional score, by site and new letter:
I330: W 0.987 ± 0.079 | G 1.16 ± 0.2 | K 0.557 ± 0.054 | Y 0.572 ± 0.036 | R 1.07 ± 0.37 | A 0.828 ± 0.26 | Q 0.577 ± 0.11 | N 0.89 ± 0.13 | F 0.831 ± 0.17 | L 0.906 ± 0.38 | C 0.866 ± 0.3 | V 0.684 ± 0.36 | T 0.637 ± 0.12 | S 0.814 ± 0.31 | E 0.403 ± 0.19 | D 0.391 ± 0.074 | P 1.33 ± 0.23
P326: I 1.06 ± 0.39 | V 1.41 ± 0.25 | F 1.72 ± 0.14 | K 0.94 ± 0.23 | R 1.17 ± 0.13 | C 1.19 ± 0.15 | H 0.781 ± 0.18 | W 1.08 ± 0.2 | Y 1.14 ± 0.061 | Q 0.303 ± 0.12 | M -0.264 ± 0.19 | N 0.815 ± 0.84 | D 0.439 ± 0.21 | T 0.923 ± 0.14 | E 0.653 ± 0.13 | L 1.1 ± 0.25 | G 0.87 ± 0.28 | S 0.881 ± 0.29 | A 0.645 ± 0.45
S338: R 1.2 ± 0.28 | E 0.862 ± 0.16 | A 0.683 ± 0.25 | T 1.21 ± 0.23 | K 1.08 ± 0.12 | N 1.3 ± 0.079 | Y 1.11 ± 0.13 | H 1.25 ± 0.079 | F 0.948 ± 0.13 | L 1.01 ± 0.18 | P 0.56 ± 0.23 | M 1.32 ± 0.11 | D 1.08 ± 0.17 | V 0.911 ± 0.12 | Q 0.916 ± 0.089 | G 1.11 ± 0.23 | I 1.18 ± 0.27 | W 0.904 ± 0.038
T334: M 1.08 ± 0.054 | A 0.83 ± 0.38 | G 1.23 ± 0.26 | D 0.352 ± 0.11 | C 0.7 ± 0.29 | R 1.06 ± 0.42 | P 0.902 ± 0.28 | W 1.39 ± 0.14 | H 0.766 ± 0.4 | Q 0.621 ± 0.44 | L 1.12 ± 0.21 | V 0.952 ± 0.29 | F 1.25 ± 0.23 | N 0.91 ± 0.15 | K 0.794 ± 0.15 | I 0.977 ± 0.26 | S 0.928 ± 0.21 | Y 1.17 ± 0.19
W335: Q 1.19 ± 0.092 | S 1.27 ± 0.35 | V 1.24 ± 0.14 | L 0.997 ± 0.24 | F 0.764 ± 0.1 | M 1.39 ± 0.12 | K 1.12 ± 0.3 | D 1.1 ± 0.21 | T 1.26 ± 0.33 | I 1.02 ± 0.12 | G 1.27 ± 0.12 | E 1.3 ± 0.14 | Y 0.768 ± 0.46 | A 1.3 ± 0.48 | P 1.04 ± 0.19 | H 0.428 ± 0.28 | R 1.29 ± 0.29 | N 0.721 ± 0.19 | C 1.24 ± 0.1
S332: L 1.17 ± 0.25 | Y 1.13 ± 0.22 | A 0.774 ± 0.14 | H 0.932 ± 0.096 | D 0.652 ± 0.32 | K 0.518 ± 0.046 | G 1.09 ± 0.12 | T 1.23 ± 0.26 | P 0.628 ± 0.17 | M -0.16 ± 0.054 | R 1.04 ± 0.24 | I 0.887 ± 0.28 | E 0.387 ± 0.16 | C 0.951 ± 0.11 | Q 0.542 ± 0.11 | N 1.56 ± 0.1 | V 1.3 ± 0.11 | W 1.41 ± 0.042 | F 1.34 ± 0.16
C322: W 0.487 ± 0.025 | Y 0.843 ± 0.064 | V 0.9 ± 0.12
L327: F 1.21 ± 0.13 | E 0.71 ± 0.14 | C 0.927 ± 0.26 | D 0.96 ± 0.2 | H -0.118 ± 0.56 | Q 1.33 ± 0.21 | M 1.3 ± 0.051 | T 0.786 ± 0.33 | R 1.05 ± 0.31 | K 0.524 ± 0.14 | P 0.673 ± 0.37 | Y 1.2 ± 0.3 | S 1.14 ± 0.24 | I 0.913 ± 0.27 | A 1.07 ± 0.3 | V 0.621 ± 0.33 | G 0.535 ± 0.21 | N 1.37 ± 0.07 | W 1.69 ± 0.054
S339: H 1.27 ± 0.26 | E 0.838 ± 0.15 | Y 1.09 ± 0.096 | A 1.13 ± 0.22 | I 0.884 ± 0.15 | V 0.99 ± 0.15 | G 0.951 ± 0.37 | M 0.1 ± 0.043 | N 0.771 ± 0.44 | W 0.962 ± 0.052 | L 0.775 ± 0.22 | R 1.11 ± 0.2 | F 0.807 ± 0.069 | C 0.985 ± 0.18 | D 0.853 ± 0.26 | Q 1.16 ± 0.21 | T 1.12 ± 0.24 | K 0.757 ± 0.12 | P 1.13 ± 0.22
S324: F 1.09 ± 0.27 | L 1.11 ± 0.22 | W 1.45 ± 0.04 | N 1.08 ± 0.064 | D 1.13 ± 0.35 | E 0.773 ± 0.19 | V 0.994 ± 0.27 | Y 1.18 ± 0.15 | H 0.589 ± 0.076 | A 1.37 ± 0.25 | I 1.06 ± 0.23 | T 0.785 ± 0.14 | C 1.03 ± 0.16 | R 0.621 ± 0.46 | K 0.415 ± 0.31 | Q 0.407 ± 0.052 | G 1.01 ± 0.13 | P 0.628 ± 0.22
G333: F 1.02 ± 0.16 | C 1.14 ± 0.053 | L 1.17 ± 0.33 | T 0.561 ± 0.19 | W 1.82 ± 0.046 | A 0.871 ± 0.34 | S 0.365 ± 0.58 | N 0.719 ± 0.62 | I 0.774 ± 0.32 | D 0.864 ± 0.14 | M 1.72 ± 0.15 | V 1.05 ± 0.15 | R 1.08 ± 0.33 | K 1.24 ± 0.25 | P 0.594 ± 0.3 | Q 0.597 ± 0.094 | E 0.832 ± 0.22 | Y 1.26 ± 0.36
E329: C 1.46 ± 0.21 | P 0.962 ± 0.13 | Q -1.43 ± 0.53 | D 1.74 ± 0.17 | S 1.09 ± 0.2 | A 1.11 ± 0.39 | K 0.00515 ± 0.43 | F 1.58 ± 0.24 | N 1.33 ± 0.079 | I 1.46 ± 0.24 | L 1.16 ± 0.3 | G 0.92 ± 0.3 | T 0.98 ± 0.26 | Y 1.42 ± 0.31 | R 0.935 ± 0.41 | W 1.13 ± 0.044 | H 1.45 ± 0.053 | V 1.1 ± 0.18
C337: D 1.68 ± 0.34 | S 1.33 ± 0.29 | A 1.51 ± 0.18 | Q 1.5 ± 0.4 | T 1.42 ± 0.093 | K 1.28 ± 0.17 | E 1.73 ± 0.059 | R 1.12 ± 0.25 | H 1.85 ± 0.1 | L 1.16 ± 0.089 | G 1.5 ± 0.28 | I 0.888 ± 0.13 | V 1.13 ± 0.11 | W 0.733 ± 0.042 | Y 1.07 ± 0.12 | N 1.53 ± 0.22 | F 0.845 ± 0.028 | M 0.956 ± 0.099 | P 1.47 ± 0.19
R336: F 1.13 ± 0.43 | K 1.67 ± 0.098 | A 1.02 ± 0.3 | I 0.734 ± 0.31 | W 0.655 ± 0.03 | T 0.895 ± 0.33 | L 0.658 ± 0.29 | S 1.04 ± 0.2 | Q 0.346 ± 0.19 | C 1.2 ± 0.12 | Y 0.141 ± 0.34 | E 0.646 ± 0.25 | P 1.38 ± 0.26 | M 0.49 ± 0.24 | V 0.812 ± 0.47 | D 1.73 ± 0.24 | H 0.786 ± 0.042 | G 1.33 ± 0.33 | N 1.03 ± 0.2
P325: T 0.777 ± 0.25 | W 0.913 ± 0.05 | H 0.387 ± 0.14 | C 1.04 ± 0.35 | F 1.01 ± 0.08 | S 1.21 ± 0.33 | Y 1.18 ± 0.32 | L 1.12 ± 0.29 | R 0.876 ± 0.29 | D 0.208 ± 0.6 | I 1.07 ± 0.24 | M 1.15 ± 0.14 | V 0.965 ± 0.077 | N 0.521 ± 0.16 | K 1.55 ± 0.083 | Q 0.938 ± 0.21 | A 1.15 ± 0.11 | E 1.45 ± 0.17 | G 1.1 ± 0.17
R328: Y 1.34 ± 0.16 | E 1.06 ± 0.071 | Q 0.659 ± 0.048 | M 1.1 ± 0.11 | K 0.67 ± 0.29 | L 1.08 ± 0.21 | I 1.17 ± 0.46 | G 0.729 ± 0.26 | H -0.256 ± 0.33 | P 1.22 ± 0.21 | A 0.877 ± 0.29 | F 0.907 ± 0.48 | V 1.1 ± 0.22 | C 0.932 ± 0.48 | S 1.17 ± 0.17 | T 0.764 ± 0.2
C340: A 1.65 ± 0.13 | G 1.44 ± 0.13 | F 0.877 ± 0.032 | Q 1.33 ± 0.12 | H 1.46 ± 0.078 | W 0.727 ± 0.019 | T 1.71 ± 0.15 | V 1.42 ± 0.083 | K 1.62 ± 0.11 | R 1.31 ± 0.1 | N 1.67 ± 0.053 | S 1.52 ± 0.17 | M 1.61 ± 0.023 | L 1.13 ± 0.11 | E 1.49 ± 0.15 | I 1.22 ± 0.088 | D 1.7 ± 0.12 | P 1.49 ± 0.32
P331: N 1.23 ± 0.25 | W 1.26 ± 0.029 | V 1.21 ± 0.22 | G 1.07 ± 0.46 | Y 1.08 ± 0.19 | M 1.35 ± 0.1 | E 0.93 ± 0.17 | H 0.817 ± 0.22 | C 1 ± 0.14 | D 1.29 ± 0.33 | L 0.9 ± 0.1 | S 0.73 ± 0.42 | R 1.41 ± 0.2 | F 0.62 ± 0.15 | K 0.702 ± 0.37 | Q 0.548 ± 0.13 | T 0.972 ± 0.2 | I 1.59 ± 0.11 | A 1.19 ± 0.23
L323: G 1.16 ± 0.55 | T 1.35 ± 0.22 | E 1.47 ± 0.11 | V 1.21 ± 0.17 | I 0.984 ± 0.34 | D 1.16 ± 0.038 | R 1.15 ± 0.18 | M 1.8 ± 0.078 | A 1.11 ± 0.27 | K 1.19 ± 0.27 | Y 0.513 ± 0.12 | C 0.656 ± 0.52 | P 1.33 ± 0.32 | F 1.5 ± 0.33 | H 0.721 ± 0.073 | N 0.866 ± 0.47 | W 1.42 ± 0.12 | S 0.985 ± 0.23 | Q 1.35 ± 0.26
